PMC8786347 (Oncoimmunology, 2022)
Values belong to the binder of their own block, whether it stands above or below them.

Columns and labels:
Test in all cases: ELISA
mCD27-Fc = target: T1, mCD27-Fc (mouse, UniProt P41272 24-182)
T1 sequence (looked up): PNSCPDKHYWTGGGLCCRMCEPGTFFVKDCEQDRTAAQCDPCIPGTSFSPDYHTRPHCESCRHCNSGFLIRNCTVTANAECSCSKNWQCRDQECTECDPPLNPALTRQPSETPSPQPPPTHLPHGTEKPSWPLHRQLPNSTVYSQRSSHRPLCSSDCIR

mCD40-Fc = target: T2, mCD40-Fc (mouse, UniProt P27512 20-193)
T2 sequence (looked up): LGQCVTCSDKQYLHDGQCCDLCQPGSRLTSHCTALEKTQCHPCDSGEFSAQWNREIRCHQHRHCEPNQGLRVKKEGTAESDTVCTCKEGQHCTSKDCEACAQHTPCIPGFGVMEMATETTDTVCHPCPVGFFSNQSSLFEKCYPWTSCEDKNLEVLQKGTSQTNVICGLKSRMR

mOX40-Fc = target: T3, mOX40-Fc (mouse, UniProt P47741 20-211)
T3 sequence (looked up): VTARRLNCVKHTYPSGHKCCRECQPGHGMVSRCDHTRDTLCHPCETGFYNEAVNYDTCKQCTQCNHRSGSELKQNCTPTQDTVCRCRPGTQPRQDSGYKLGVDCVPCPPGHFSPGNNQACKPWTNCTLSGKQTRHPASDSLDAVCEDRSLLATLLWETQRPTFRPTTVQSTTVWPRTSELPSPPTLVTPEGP

m4-1BB-Fc = target: T4, m4-1BB-Fc (mouse, UniProt P20334 24-187)
T4 sequence (looked up): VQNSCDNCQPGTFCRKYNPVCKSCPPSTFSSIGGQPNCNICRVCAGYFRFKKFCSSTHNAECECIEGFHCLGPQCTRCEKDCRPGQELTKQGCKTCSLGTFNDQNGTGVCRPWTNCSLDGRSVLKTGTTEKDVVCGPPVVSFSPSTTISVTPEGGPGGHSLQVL

CD27-moFc = target: T5, CD27-moFc (UniProt P26842 20-191)
T5 sequence (looked up): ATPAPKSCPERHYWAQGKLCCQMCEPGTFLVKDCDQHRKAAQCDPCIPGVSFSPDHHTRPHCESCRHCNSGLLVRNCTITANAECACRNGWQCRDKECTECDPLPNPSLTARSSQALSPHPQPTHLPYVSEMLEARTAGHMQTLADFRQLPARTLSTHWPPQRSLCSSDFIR

CD40-huFc = CD40-huFc (UniProt P25942 21-193)
CD40-huFc, sequence (P25942 21-193): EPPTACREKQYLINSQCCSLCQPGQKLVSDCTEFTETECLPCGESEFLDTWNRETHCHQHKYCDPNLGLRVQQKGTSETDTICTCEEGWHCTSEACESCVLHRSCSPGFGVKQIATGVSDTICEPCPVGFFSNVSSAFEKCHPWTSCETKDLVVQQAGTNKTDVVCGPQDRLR

CD40-moFc = CD40-moFc (UniProt P25942 21-193)
CD40-moFc, sequence (P25942 21-193): as above

OX40-moFc = target: T6, OX40-moFc (UniProt P43489 29-214)
T6 sequence (looked up): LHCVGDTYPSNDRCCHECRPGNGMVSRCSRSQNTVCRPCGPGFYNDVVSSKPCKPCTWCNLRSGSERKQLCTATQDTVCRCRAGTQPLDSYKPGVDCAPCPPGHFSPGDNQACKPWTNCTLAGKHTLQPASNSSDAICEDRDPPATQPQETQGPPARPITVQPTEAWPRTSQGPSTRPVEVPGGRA

- EC50 (mCD27-Fc): 0.4 nM
- EC50 (mCD40-Fc): 1.4 nM
B1: mscCD40L-mscCD27L-mFc (Fc fusion)
chain 1: HRRLDKVEEEVNLHEDFVFIKKLKRCNKGEGSLSLLNCEEMRRQFEDLVKDITLNKEEKKENSFEMQRGDEDPQIAAHVVSEANSNAASVLQWAKKGYYTMKSNLVMLENGKQLTVKREGLYYVYTQVTFCSNREPSSQRPFIVGLWLKPSSGSERILLKAANTHSSSQLCEQQSVHLGGVFELQAGASVFVNVTEASQVIHRVGFSSFGLLKLGGHRRLDKVEEEVNLHEDFVFIKKLKRCNKGEGSLSLLNCEEMRRQFEDLVKDITLNKEEKKENSFEMQRGDEDPQIAAHVVSEANSNAASVLQWAKKGYYTMKSNLVMLENGKQLTVKREGLYYVYTQVTFCSNREPSSQRPFIVGLWLKPSSGSERILLKAANTHSSSQLCEQQSVHLGGVFELQAGASVFVNVTEASQVIHRVGFSSFGLLKLGGHRRLDKVEEEVNLHEDFVFIKKLKRCNKGEGSLSLLNCEEMRRQFEDLVKDITLNKEEKKENSFEMQRGDEDPQIAAHVVSEANSNAASVLQWAKKGYYTMKSNLVMLENGKQLTVKREGLYYVYTQVTFCSNREPSSQRPFIVGLWLKPSSGSERILLKAANTHSSSQLCEQQSVHLGGVFELQAGASVFVNVTEASQVIHRVGFSSFGLLKL
chain 2: SKQQQRLLEHPEPHTAELQLNLTVPRKDPTLRWGAGPALGRSFTHGPELEEGHLRIHQDGLYRLHIQVTLANCSSPGSTLQHRATLAVGICSPAAHGISLLRGRFGQDCTVALQRLTYLVHGDVLCTNLTLPLLPSRNADETFFGVQWICPGGSKQQQRLLEHPEPHTAELQLNLTVPRKDPTLRWGAGPALGRSFTHGPELEEGHLRIHQDGLYRLHIQVTLANCSSPGSTLQHRATLAVGICSPAAHGISLLRGRFGQDCTVALQRLTYLVHGDVLCTNLTLPLLPSRNADETFFGVQWICPGGSKQQQRLLEHPEPHTAELQLNLTVPRKDPTLRWGAGPALGRSFTHGPELEEGHLRIHQDGLYRLHIQVTLANCSSPGSTLQHRATLAVGICSPAAHGISLLRGRFGQDCTVALQRLTYLVHGDVLCTNLTLPLLPSRNADETFFGVQWICP

- EC50 (mOX40-Fc): 55.2 nM
- EC50 (m4-1BB-Fc): 9.2 nM
B2: msc4-1BBL-mscOX40L-mFc (Fc fusion)
chain 1: RTEPRPALTITTSPNLGTRENNADQVTPVSHIGCPNTTQQGSPVFAKLLAKNQASLCNTTLNWHSQDGAGSSYLSQGLRYEEDKKELVVDSPGLYYVFLELKLSPTFTNTGHKVQGWVSLVLQAKPQVDDFDNLALTVELFPCSMENKLVDRSWSQLLLLKAGHRLSVGLRAYLHGAQDAYRDWELSYPNTTSFGLFLVKPDNPWEGGGGSGGGGSGGGGSGGGGSRTEPRPALTITTSPNLGTRENNADQVTPVSHIGCPNTTQQGSPVFAKLLAKNQASLCNTTLNWHSQDGAGSSYLSQGLRYEEDKKELVVDSPGLYYVFLELKLSPTFTNTGHKVQGWVSLVLQAKPQVDDFDNLALTVELFPCSMENKLVDRSWSQLLLLKAGHRLSVGLRAYLHGAQDAYRDWELSYPNTTSFGLFLVKPDNPWEGGGGSGGGGSGGGGSGGGGSRTEPRPALTITTSPNLGTRENNADQVTPVSHIGCPNTTQQGSPVFAKLLAKNQASLCNTTLNWHSQDGAGSSYLSQGLRYEEDKKELVVDSPGLYYVFLELKLSPTFTNTGHKVQGWVSLVLQAKPQVDDFDNLALTVELFPCSMENKLVDRSWSQLLLLKAGHRLSVGLRAYLHGAQDAYRDWELSYPNTTSFGLFLVKPDNPWE
chain 2: SSSPAKDPPIQRLRGAVTRCEDGQLFISSYKNEYQTMEVQNNSVVIKCDGLYIIYLKGSFFQEVKIDLHFREDHNPISIPMLNDGRRIVFTVVASLAFKDKVYLTVNAPDTLCEHLQINDGELIVVQLTPGYCAPEGSYHSTVNQVPLGGGGSGGGGSGGGGSSSSPAKDPPIQRLRGAVTRCEDGQLFISSYKNEYQTMEVQNNSVVIKCDGLYIIYLKGSFFQEVKIDLHFREDHNPISIPMLNDGRRIVFTVVASLAFKDKVYLTVNAPDTLCEHLQINDGELIVVQLTPGYCAPEGSYHSTVNQVPLGGGGSGGGGSGGGGSSSSPAKDPPIQRLRGAVTRCEDGQLFISSYKNEYQTMEVQNNSVVIKCDGLYIIYLKGSFFQEVKIDLHFREDHNPISIPMLNDGRRIVFTVVASLAFKDKVYLTVNAPDTLCEHLQINDGELIVVQLTPGYCAPEGSYHSTVNQVPL

- EC50 (CD27-moFc): 0.3 nM
- EC50 (CD40-huFc): 0.1 nM
B3: scCD40L-scCD27L-Fc (Fc fusion, human)
chain 1: GDQNPQIAAHVISEASSKTTSVLQWAEKGYYTMSNNLVTLENGKQLTVKRQGLYYIYAQVTFCSNREASSQAPFIASLCLKSPGRFERILLRAANTHSSAKPCGQQSIHLGGVFELQPGASVFVNVTDPSQVSHGTGFTSFGLLKLGGGDQNPQIAAHVISEASSKTTSVLQWAEKGYYTMSNNLVTLENGKQLTVKRQGLYYIYAQVTFCSNREASSQAPFIASLCLKSPGRFERILLRAANTHSSAKPCGQQSIHLGGVFELQPGASVFVNVTDPSQVSHGTGFTSFGLLKLGGGDQNPQIAAHVISEASSKTTSVLQWAEKGYYTMSNNLVTLENGKQLTVKRQGLYYIYAQVTFCSNREASSQAPFIASLCLKSPGRFERILLRAANTHSSAKPCGQQSIHLGGVFELQPGASVFVNVTDPSQVSHGTGFTSFGLLKL
chain 2: SLGWDVAELQLNHTGPQQDPRLYWQGGPALGRSFLHGPELDKGQLRIHRDGIYMVHIQVTLAICSSTTASRHHPTTLAVGICSPASRSISLLRLSFHQGCTIASQRLTPLARGDTLCTNLTGTLLPSRNTDETFFGVQWVRPGGSLGWDVAELQLNHTGPQQDPRLYWQGGPALGRSFLHGPELDKGQLRIHRDGIYMVHIQVTLAICSSTTASRHHPTTLAVGICSPASRSISLLRLSFHQGCTIASQRLTPLARGDTLCTNLTGTLLPSRNTDETFFGVQWVRPGGSLGWDVAELQLNHTGPQQDPRLYWQGGPALGRSFLHGPELDKGQLRIHRDGIYMVHIQVTLAICSSTTASRHHPTTLAVGICSPASRSISLLRLSFHQGCTIASQRLTPLARGDTLCTNLTGTLLPSRNTDETFFGVQWVRP

- EC50 (CD40-moFc): 0.3 nM
- EC50 (OX40-moFc): 0.2 nM
- EC50 (CD40-huFc): 0.5 nM
B4: scCD40L-scOX40L-Fc (Fc fusion, human)
chain 1: GDQNPQIAAHVISEASSKTTSVLQWAEKGYYTMSNNLVTLENGKQLTVKRQGLYYIYAQVTFCSNREASSQAPFIASLCLKSPGRFERILLRAANTHSSAKPCGQQSIHLGGVFELQPGASVFVNVTDPSQVSHGTGFTSFGLLKLGGGDQNPQIAAHVISEASSKTTSVLQWAEKGYYTMSNNLVTLENGKQLTVKRQGLYYIYAQVTFCSNREASSQAPFIASLCLKSPGRFERILLRAANTHSSAKPCGQQSIHLGGVFELQPGASVFVNVTDPSQVSHGTGFTSFGLLKLGGGDQNPQIAAHVISEASSKTTSVLQWAEKGYYTMSNNLVTLENGKQLTVKRQGLYYIYAQVTFCSNREASSQAPFIASLCLKSPGRFERILLRAANTHSSAKPCGQQSIHLGGVFELQPGASVFVNVTDPSQVSHGTGFTSFGLLKL
chain 2: QVSHRYPRIQSIKVQFTEYKKEKGFILTSQKEDEIMKVQNNSVIINCDGFYLISLKGYFSQEVNISLHYQKDEEPLFQLKKVRSVNSLMVASLTYKDKVYLNVTTDNTSLDDFHVNGGELILIHQNPGEFCVLGGGGSGGGGSGGGGSQVSHRYPRIQSIKVQFTEYKKEKGFILTSQKEDEIMKVQNNSVIINCDGFYLISLKGYFSQEVNISLHYQKDEEPLFQLKKVRSVNSLMVASLTYKDKVYLNVTTDNTSLDDFHVNGGELILIHQNPGEFCVLGGGGSGGGGSGGGGSQVSHRYPRIQSIKVQFTEYKKEKGFILTSQKEDEIMKVQNNSVIINCDGFYLISLKGYFSQEVNISLHYQKDEEPLFQLKKVRSVNSLMVASLTYKDKVYLNVTTDNTSLDDFHVNGGELILIHQNPGEFCVL
